Data: publication PMC3025350, “Regulation and Rate Enhancement during Transcription-Coupled DNA Repair”

What was measured:
Conditions in all cases: protein: recombinant; tags: N-terminal His; chain copies: 2; label: 32P; blunt
[1] = molecular target: T1, UvrA WT (Escherichia coli, UniProt P0A698 1-940); assay: EMSA; 2 mM ATP; EMSA, 1 nM 32P-labeled 50 bp duplex, 2 mM ATP, 20 min at 37°C; buffer, salt and pH not given in the material
T1 sequence: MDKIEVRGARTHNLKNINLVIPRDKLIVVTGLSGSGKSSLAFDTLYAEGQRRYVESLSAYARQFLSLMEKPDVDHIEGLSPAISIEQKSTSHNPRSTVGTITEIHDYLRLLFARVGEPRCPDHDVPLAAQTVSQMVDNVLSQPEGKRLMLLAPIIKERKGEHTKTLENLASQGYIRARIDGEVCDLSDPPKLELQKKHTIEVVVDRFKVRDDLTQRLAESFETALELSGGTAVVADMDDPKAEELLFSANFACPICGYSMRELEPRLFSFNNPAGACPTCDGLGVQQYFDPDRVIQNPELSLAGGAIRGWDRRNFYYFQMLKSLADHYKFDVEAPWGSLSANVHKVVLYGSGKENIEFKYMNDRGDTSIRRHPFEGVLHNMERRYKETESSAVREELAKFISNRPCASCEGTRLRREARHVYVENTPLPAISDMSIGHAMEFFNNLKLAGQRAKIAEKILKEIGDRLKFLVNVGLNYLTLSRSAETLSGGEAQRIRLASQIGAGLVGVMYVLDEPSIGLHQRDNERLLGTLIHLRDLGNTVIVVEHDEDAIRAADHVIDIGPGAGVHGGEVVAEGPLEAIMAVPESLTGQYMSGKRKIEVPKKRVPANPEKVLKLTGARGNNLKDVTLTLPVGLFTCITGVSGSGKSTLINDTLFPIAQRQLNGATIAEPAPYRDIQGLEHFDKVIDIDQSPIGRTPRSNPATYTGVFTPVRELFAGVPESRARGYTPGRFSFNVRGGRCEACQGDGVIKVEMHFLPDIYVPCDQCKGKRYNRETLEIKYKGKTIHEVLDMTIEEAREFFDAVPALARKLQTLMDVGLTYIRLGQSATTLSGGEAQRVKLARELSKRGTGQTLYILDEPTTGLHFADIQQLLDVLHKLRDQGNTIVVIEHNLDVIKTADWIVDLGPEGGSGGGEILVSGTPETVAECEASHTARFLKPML

[2] = molecular target: T2, UvrA K37A (Escherichia coli, UniProt P0A698 1-940, K37A); assay: EMSA; 2 mM ATP; binding detected at <300 nM UvrA; EMSA, 1 nM 32P-labeled 50 bp duplex, 2 mM ATP, 20 min at 37°C; buffer, salt and pH not given in the material
T2 sequence: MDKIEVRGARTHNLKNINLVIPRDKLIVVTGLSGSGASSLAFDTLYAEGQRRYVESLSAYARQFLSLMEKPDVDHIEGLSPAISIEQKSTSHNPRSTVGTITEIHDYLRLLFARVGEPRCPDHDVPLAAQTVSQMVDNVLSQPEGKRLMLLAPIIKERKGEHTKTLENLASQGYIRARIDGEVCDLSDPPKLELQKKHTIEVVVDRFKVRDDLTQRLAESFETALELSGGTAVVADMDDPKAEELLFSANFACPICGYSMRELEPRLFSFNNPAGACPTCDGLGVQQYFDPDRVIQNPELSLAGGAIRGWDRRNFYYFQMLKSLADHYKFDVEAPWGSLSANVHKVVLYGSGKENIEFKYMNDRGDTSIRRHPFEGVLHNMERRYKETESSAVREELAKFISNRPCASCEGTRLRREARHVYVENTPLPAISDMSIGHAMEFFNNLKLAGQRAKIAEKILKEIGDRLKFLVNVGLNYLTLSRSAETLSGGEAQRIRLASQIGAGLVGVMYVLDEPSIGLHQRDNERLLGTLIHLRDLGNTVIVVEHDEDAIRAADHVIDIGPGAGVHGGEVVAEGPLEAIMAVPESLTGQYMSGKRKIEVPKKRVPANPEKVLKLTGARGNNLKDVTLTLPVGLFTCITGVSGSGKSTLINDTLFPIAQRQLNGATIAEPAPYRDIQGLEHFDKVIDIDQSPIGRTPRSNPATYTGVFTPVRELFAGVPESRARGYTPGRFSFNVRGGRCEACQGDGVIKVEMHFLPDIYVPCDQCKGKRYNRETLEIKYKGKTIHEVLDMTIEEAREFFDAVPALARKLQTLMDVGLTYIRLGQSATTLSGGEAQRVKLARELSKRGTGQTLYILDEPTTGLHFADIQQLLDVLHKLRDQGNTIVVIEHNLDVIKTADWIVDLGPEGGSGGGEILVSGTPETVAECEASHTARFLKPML

[3] = molecular target: T3, UvrA G502D (Escherichia coli, UniProt P0A698 1-940, G502D); assay: as above
T3 sequence: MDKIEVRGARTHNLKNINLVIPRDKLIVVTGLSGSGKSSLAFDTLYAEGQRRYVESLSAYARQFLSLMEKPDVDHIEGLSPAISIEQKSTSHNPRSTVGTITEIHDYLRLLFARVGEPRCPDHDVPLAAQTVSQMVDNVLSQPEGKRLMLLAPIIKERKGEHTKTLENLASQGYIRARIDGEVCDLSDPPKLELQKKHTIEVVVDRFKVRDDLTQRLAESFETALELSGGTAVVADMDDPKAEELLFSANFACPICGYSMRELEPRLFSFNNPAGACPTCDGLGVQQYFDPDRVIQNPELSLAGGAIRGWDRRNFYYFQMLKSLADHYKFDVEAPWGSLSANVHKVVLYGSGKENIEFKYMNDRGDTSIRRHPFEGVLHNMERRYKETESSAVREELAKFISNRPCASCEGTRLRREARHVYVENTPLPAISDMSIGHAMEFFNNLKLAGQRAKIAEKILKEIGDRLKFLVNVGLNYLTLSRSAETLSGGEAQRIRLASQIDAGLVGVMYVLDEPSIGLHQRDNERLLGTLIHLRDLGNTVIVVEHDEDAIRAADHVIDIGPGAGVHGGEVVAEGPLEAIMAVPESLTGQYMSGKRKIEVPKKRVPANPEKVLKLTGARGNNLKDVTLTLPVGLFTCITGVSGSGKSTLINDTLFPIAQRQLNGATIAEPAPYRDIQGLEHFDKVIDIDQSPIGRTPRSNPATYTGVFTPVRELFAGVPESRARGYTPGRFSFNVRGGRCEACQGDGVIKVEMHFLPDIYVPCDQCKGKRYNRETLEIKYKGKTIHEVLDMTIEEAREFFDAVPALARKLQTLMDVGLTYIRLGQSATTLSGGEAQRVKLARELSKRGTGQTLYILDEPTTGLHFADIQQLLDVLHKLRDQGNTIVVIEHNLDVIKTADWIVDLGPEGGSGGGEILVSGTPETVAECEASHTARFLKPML

[4] = molecular target: T4, UvrA R712A R722A R724A R730A (Escherichia coli, UniProt P0A698 1-940, R712A;R722A;R724A;R730A); assay: EMSA; 2 mM ATP; no binding detected at 800 nM UvrA; EMSA, 1 nM 32P-labeled 50 bp duplex, 2 mM ATP, 20 min at 37°C; buffer, salt and pH not given in the material
T4 sequence: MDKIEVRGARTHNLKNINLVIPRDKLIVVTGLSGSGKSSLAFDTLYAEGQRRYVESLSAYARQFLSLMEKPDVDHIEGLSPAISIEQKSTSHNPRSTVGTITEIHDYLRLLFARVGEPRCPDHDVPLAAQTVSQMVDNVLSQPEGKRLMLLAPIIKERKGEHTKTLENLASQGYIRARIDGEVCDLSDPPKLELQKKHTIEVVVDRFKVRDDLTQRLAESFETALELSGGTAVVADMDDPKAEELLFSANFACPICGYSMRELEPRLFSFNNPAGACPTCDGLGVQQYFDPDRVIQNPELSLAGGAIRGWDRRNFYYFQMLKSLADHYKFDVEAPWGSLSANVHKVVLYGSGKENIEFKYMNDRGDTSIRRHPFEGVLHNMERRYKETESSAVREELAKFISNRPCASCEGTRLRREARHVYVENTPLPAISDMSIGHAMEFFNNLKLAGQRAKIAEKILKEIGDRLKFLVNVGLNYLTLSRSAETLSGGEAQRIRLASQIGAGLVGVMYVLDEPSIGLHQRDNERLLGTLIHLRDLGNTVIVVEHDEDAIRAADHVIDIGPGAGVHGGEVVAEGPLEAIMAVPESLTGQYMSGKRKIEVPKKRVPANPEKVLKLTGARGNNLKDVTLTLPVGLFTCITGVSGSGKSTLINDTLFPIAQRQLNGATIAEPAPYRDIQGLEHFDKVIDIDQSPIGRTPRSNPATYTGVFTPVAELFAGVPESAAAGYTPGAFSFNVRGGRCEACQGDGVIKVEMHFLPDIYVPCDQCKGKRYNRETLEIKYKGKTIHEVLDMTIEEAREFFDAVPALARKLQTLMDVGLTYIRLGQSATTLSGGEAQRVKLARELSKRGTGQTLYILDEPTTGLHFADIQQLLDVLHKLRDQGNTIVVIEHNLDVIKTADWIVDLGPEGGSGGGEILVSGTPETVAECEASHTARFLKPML

B1: 50 bp duplex with single FldT adduct (dsDNA)
DNA 1: CTAGGATCGGATAGCGCATGACAGTGACTGGATCGACAGCGTCGTATGAG
DNA 2: CTCATACGACGCTGTCGATCCAGTCACTGTCATGCGCTATCCGATCCTAG
modifications: fluorescein-dT (FldT) at position 29 of strand 1
- Kd [1]: 5.6 ± 1 nM
- binding result [2]: binds
- binding result [3]: binds
- binding result [4]: no binding
